Assays:
HeLa Kyoto [1] = test: melting temperature (median over replicates), in situ; higher = more thermally stable
HeLa Kyoto [2] = test: solubility in G1/S (NP-40 vs SDS abundance) (log2 ratio); higher = more soluble; settings: cell cycle stage: G1/S
HeLa Kyoto [3] = test: thermal stability score vs G1/S (z-score of summed log2 fold changes over temperatures); higher = more thermally stable than in G1/S
HeLa Kyoto [4] = test: solubility change mitosis vs G1/S (difference of NP-40 vs SDS log2 ratios) (log2 ratio difference); higher = more soluble in mitosis
[5] = cell cycle stage: early G1 (4.5 h after nocodazole release)
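For melting temperature (median over replicates), in situ in this document: HeLa Kyoto cells synchronized by double thymidine or nocodazole block, proteins quantified by TMT10plex mass spectrometry, three independent biological replicates.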
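For solubility change mitosis vs G1/S (difference of NP-40 vs SDS log2 ratios) in this document: synchronized HeLa Kyoto cells (double thymidine block for G1/S, nocodazole release for mitosis), protein amounts in NP-40 versus SDS lysates quantified by mass spectrometry, three biological replicates.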
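For solubility in G1/S (NP-40 vs SDS abundance) in this document: HeLa Kyoto cells arrested at G1/S by double thymidine block, proteins quantified by TMT10plex mass spectrometry in mild NP-40 versus SDS extracts, three biological replicates.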
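For thermal stability score vs G1/S (z-score of summed log2 fold changes over temperatures) in this document: synchronized HeLa Kyoto cells, proteins quantified by TMT10plex mass spectrometry, three biological replicates, mitosis taken 0.5 h after nocodazole release, G1/S directly after double thymidine block.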

| Substance | melting temperature (HeLa Kyoto [1]; cell cycle stage: G1/S) | melting temperature (HeLa Kyoto [1]; cell cycle stage: mitosis) | solubility in G1/S (log2) (HeLa Kyoto [2]) | thermal stability score (HeLa Kyoto [3]; [5]) | thermal stability score (HeLa Kyoto [3]; cell cycle stage: mitosis) | solubility change mitosis (log2) (HeLa Kyoto [4]) |
| --- | --- | --- | --- | --- | --- | --- |
| MADFLPSRSVLSVCFPGCLLTSGEAEQQRKSKEIDKCLSREKTYVKRLVKILLLGAGESGKSTFLKQMRIIHGQDFDQRAREEFRPTIYSNVIKGMRVLVDAREKLHIPWGDNSNQQHGDKMMSFDTRAPMAAQGMVETRVFLQYLPAIRALWADSGIQNAYDRRREFQLGESVKYFLDNLDKLGEPDYIPSQQDILLARRPTKGIHEYDFEIKNVPFKMVDVGGQRSERKRWFECFDSVTSILFLVSSSEFDQVLMEDRLTNRLTESLNIFETIVNNRVFSNVSIILFLNKTDLLEEKVQIVSIKDYFLEFEGDPHCLRDVQKFLVECFRNKRRDQQQKPLYHHFTTAINTENIRLVFRDVKDTILHDNLKQLMLQ [GNA13] | 53.7 °C | 53.5 °C | -0.176 | 1.07 | 1.56 | -0.27 |
| MALRVVRSVRALLCTLRAVPSPAAPCPPRPWQLGVGAVRTLRTGPALLSVRKFTEKHEWVTTENGIGTVGISNFAQEALGDVVYCSLPEVGTKLNKQDEFGALESVKAASELYSPLSGEVTEINEALAENPGLVNKSCYEDGWLIKMTLSNPSELDELMSEEAYEKYIKSIEE [GCSH] | 60 °C | 56.8 °C | 0.297 | -1.2 | -1.7 | -0.0756 |
| MLVHLFRVGIRGGPFPGRLLPPLRFQTFSAVRNTWRNGKTGQLHKAEGEYSDGYRSSSLLRAVAHLRSQLWAHLPRAPLAPRWSPSAWCWVGGALLGPMVLSKHPHLCLVALCEAEEAPPASSTPHVVGSRFNWKLFWQFLHPHLLVLGVAVVLALGAALVNVQIPLLLGQLVEVVAKYTRDHVGSFMTESQNLSTHLLILYGVQGLLTFGYLVLLSHVGERMAVDMRRALFSSLLRQDITFFDANKTGQLVSRLTTDVQEFKSSFKLVISQGLRSCTQVAGCLVSLSMLSTRLTLLLMVATPALMGVGTLMGSGLRKLSRQCQEQIARAMGVADEALGNVRTVRAFAMEQREEERYGAELEACRCRAEELGRGIALFQGLSNIAFNCMVLGTLFIGGSLVAGQQLTGGDLMSFLVASQTVQRSMANLSVLFGQVVRGLSAGARVFEYMALNPCIPLSGGCCVPKEQLRGSVTFQNVCFSYPCRPGFEVLKDFTLTLPPGKIVALVGQSGGGKTTVASLLERFYDPTAGVVMLDGRDLRTLDPSWLRGQVVGFISQEPVLFGTTIMENIRFGKLEASDEEVYTAAREANAHEFITSFPEGYNTVVGERGTTLSGGQKQRLAIARALIKQPTVLILDEATSALDAESERVVQEALDRASAGRTVLVIAHRLSTVRGAHCIVVMADGRVWEAGTHEELLKKGGLYAELIRRQALDAPRTAAPPPKKPEGPRSHQHKS [ABCB8] | 51.1 °C | – | -0.36 | 0.49 | -0.355 | 0.155 |
| MASSAEGDEGTVVALAGVLQSGFQELSLNKLATSLGASEQALRLIISIFLGYPFALFYRHYLFYKETYLIHLFHTFTGLSIAYFNFGNQLYHSLLCIVLQFLILRLMGRTITAVLTTFCFQMAYLLAGYYYTATGNYDIKWTMPHCVLTLKLIGLAVDYFDGGKDQNSLSSEQQKYAIRGVPSLLEVAGFSYFYGAFLVGPQFSMNHYMKLVQGELIDIPGKIPNSIIPALKRLSLGLFYLVGYTLLSPHITEDYLLTEDYDNHPFWFRCMYMLIWGKFVLYKYVTCWLVTEGVCILTGLGFNGFEEKGKAKWDACANMKVWLFETNPRFTGTIASFNINTNAWVARYIFKRLKFLGNKELSQGLSLLFLALWHGLHSGYLVCFQMEFLIVIVERQAARLIQESPTLSKLAAITVLQPFYYLVQQTIHWLFMGYSMTAFCLFTWDKWLKVYKSIYFLGHIFFLSLLFILPYIHKAMVPRKEKLKKME [LPCAT3] | – | 55.7 °C | -0.0534 | 0.0481 | -0.776 | -0.275 |
| MNRSHRHGAGSGCLGTMEVKSKFGAEFRRFSLERSKPGKFEEFYGLLQHVHKIPNVDVLVGYADIHGDLLPINNDDNYHKAVSTANPLLRIFIQKKEEADYSAFGTDTLIKKKNVLTNVLRPDNHRKKPHIVISMPQDFRPVSSIIDVDILPETHRRVRLYKYGTEKPLGFYIRDGSSVRVTPHGLEKVPGIFISRLVPGGLAQSTGLLAVNDEVLEVNGIEVSGKSLDQVTDMMIANSRNLIITVRPANQRNNVVRNSRTSGSSGQSTDNSLLGYPQQIEPSFEPEDEDSEEDDIIIEDNGVPQQIPKAVPNTESLESLTQIELSFESGQNGFIPSNEVSLAAIASSSNTEFETHAPDQKLLEEDGTIITL [PARD6B] | 51 °C | – | -0.226 | -0.366 | -0.685 | 0.0857 |
| MMSLSVRPQRRLLSARVNRSQSFAGVLGSHERGPSLSFRSFPVFSPPGPPRKPPALSRVSRMFSVAHPAAKVPQPERLDLVYTALKRGLTAYLEVHQQEQEKLQGQIRESKRNSRLGFLYDLDKQVKSIERFLRRLEFHASKIDELYEAYCVQRRLRDGAYNMVRAYTTGSPGSREARDSLAEATRGHREYTESMCLLESELEAQLGEFHLRMKGLAGFARLCVGDQYEICMKYGRQRWKLRGRIEGSGKQVWDSEETIFLPLLTEFLSIKVTELKGLANHVVVGSVSCETKDLFAALPQVVAVDINDLGTIKLSLEVTWSPFDKDDQPSAASSVNKASTVTKRFSTYSQSPPDTPSLREQAFYNMLRRQEELENGTAWSLSSESSDDSSSPQLSGTARHSPAPRPLVQQPEPLPIQVAFRRPETPSSGPLDEEGAVAPVLANGHAPYSRTLSHISEASVDAALAEASVEAVGPESLAWGPSPPTHPAPTHGEHPSPVPPALDPGHSATSSTLGTTGSVPTSTDPAPSAHLDSVHKSTDSGPSELPGPTHTTTGSTYSAITTTHSAPSPLTHTTTGSTHKPIISTLTTTGPTLNIIGPVQTTTSPTHTMPSPTHTTASPTHTSTSPTHTPTSPTHKTSMSPPTTTSPTPSGMGLVQTATSPTHPTTSPTHPTTSPILINVSPSTSLELATLSSPSKHSDPTLPGTDSLPCSPPVSNSYTQADPMAPRTPHPSPAHSSRKPLTSPAPDPSESTVQSLSPTPSPPTPAPQHSDLCLAMAVQTPVPTAAGGSGDRSLEEALGALMAALDDYRGQFPELQGLEQEVTRLESLLMQRQGLTRSRASSLSITVEHALESFSFLNEDEDEDNDVPGDRPPSSPEAGAEDSIDSPSARPLSTGCPALDAALVRHLYHCSRLLLKLGTFGPLRCQEAWALERLLREARVLEAVCEFSRRWEIPASSAQEVVQFSASRPGFLTFWDQCTERLSCFLCPVERVLLTFCNQYGARLSLRQPGLAEAVCVKFLEDALGQKLPRRPQPGPGEQLTVFQFWSFVETLDSPTMEAYVTETAEEVLLVRNLNSDDQAVVLKALRLAPEGRLRRDGLRALSSLLVHGNNKVMAAVSTQLRSLSLGPTFRERALLCFLDQLEDEDVQTRVAGCLALGCIKAPEGIEPLVYLCQTDTEAVREAARQSLQQCGEEGQSAHRRLEESLDALPRIFGPGSMASTAF [FAM65A] | 50.1 °C | 49.7 °C | 0.0594 | 0.236 | 1.49 | -0.096 |
| MAAPSPSGGGGSGGGSGSGTPGPVGSPAPGHPAVSSMQGKRKALKLNFANPPFKSTARFTLNPNPTGVQNPHIERLRTHSIESSGKLKISPEQHWDFTAEDLKDLGEIGRGAYGSVNKMVHKPSGQIMAVKRIRSTVDEKEQKQLLMDLDVVMRSSDCPYIVQFYGALFREGDCWICMELMSTSFDKFYKYVYSVLDDVIPEEILGKITLATVKALNHLKENLKIIHRDIKPSNILLDRSGNIKLCDFGISGQLVDSIAKTRDAGCRPYMAPERIDPSASRQGYDVRSDVWSLGITLYELATGRFPYPKWNSVFDQLTQVVKGDPPQLSNSEEREFSPSFINFVNLCLTKDESKRPKYKELLKHPFILMYEERAVEVACYVCKILDQMPATPSSPMYVD [MAP2K4] | 50.7 °C | 51.5 °C | 0.456 | 0.539 | 0.431 | 0.0151 |
| MQAGKPILYSYFRSSCSWRVRIALALKGIDYKTVPINLIKDRGQQFSKDFQALNPMKQVPTLKIDGITIHQSLAIIEYLEEMRPTPRLLPQDPKKRASVRMISDLIAGGIQPLQNLSVLKQVGEEMQLTWAQNAITCGFNALEQILQSTAGIYCVGDEVTMADLCLVPQVANAERFKVDLTPYPTISSINKRLLVLEAFQVSHPCRQPDTPTELRA [GSTZ1] | 53.5 °C | 52.9 °C | 0.447 | -2.37 | -2.09 | 0.0886 |
| MEVAVEKAVAAAAAASAAASGGPSAAPSGENEAESRQGPDSERGGEAARLNLLDTCAVCHQNIQSRAPKLLPCLHSFCQRCLPAPQRYLMLPAPMLGSAETPPPVPAPGSPVSGSSPFATQVGVIRCPVCSQECAERHIIDNFFVKDTTEVPSSTVEKSNQVCTSCEDNAEANGFCVECVEWLCKTCIRAHQRVKFTKDHTVRQKEEVSPEAVGVTSQRPVFCPFHKKEQLKLYCETCDKLTCRDCQLLEHKEHRYQFIEEAFQNQKVIIDTLITKLMEKTKYIKFTGNQIQNRIIEVNQNQKQVEQDIKVAIFTLMVEINKKGKALLHQLESLAKDHRMKLMQQQQEVAGLSKQLEHVMHFSKWAVSSGSSTALLYSKRLITYRLRHLLRARCDASPVTNNTIQFHCDPSFWAQNIINLGSLVIEDKESQPQMPKQNPVVEQNSQPPSGLSSNQLSKFPTQISLAQLRLQHMQQQVMAQRQQVQRRPAPVGLPNPRMQGPIQQPSISHQQPPPRLINFQNHSPKPNGPVLPPHPQQLRYPPNQNIPRQAIKPNPLQMAFLAQQAIKQWQISSGQGTPSTTNSTSSTPSSPTITSAAGYDGKAFGSPMIDLSSPVGGSYNLPSLPDIDCSSTIMLDNIVRKDTNIDHGQPRPPSNRTVQSPNSSVPSPGLAGPVTMTSVHPPIRSPSASSVGSRGSSGSSSKPAGADSTHKVPVVMLEPIRIKQENSGPPENYDFPVVIVKQESDEESRPQNANYPRSILTSLLLNSSQSSTSEETVLRSDAPDSTGDQPGLHQDNSSNGKSEWLDPSQKSPLHVGETRKEDDPNEDWCAVCQNGGELLCCEKCPKVFHLSCHVPTLTNFPSGEWICTFCRDLSKPEVEYDCDAPSHNSEKKKTEGLVKLTPIDKRKCERLLLFLYCHEMSLAFQDPVPLTVPDYYKIIKNPMDLSTIKKRLQEDYSMYSKPEDFVADFRLIFQNCAEFNEPDSEVANAGIKLENYFEELLKNLYPEKRFPKPEFRNESEDNKFSDDSDDDFVQPRKKRLKSIEERQLLK [TRIM24] | 48.8 °C | 50.2 °C | -0.0643 | 2.07 | 4.99 | -0.117 |
| ATP7A | 51.7 °C | 51.1 °C | 0.00927 | -0.475 | -0.996 | -0.147 |
| MAVPGVGLLTRLNLCARRRTRVQRPIVRLLSCPGTVAKDLRRDEQPSGSVETGFEDKIPKRRFSEMQNERREQAQRTVLIHCPEKISENKFLKYLSQFGPINNHFFYESFGLYAVVEFCQKESIGSLQNGTHTPSTAMETAIPFRSRFFNLKLKNQTSERSRVRSSNQLPRSNKQLFELLCYAESIDDQLNTLLKEFQLTEENTKLRYLTCSLIEDMAAAYFPDCIVRPFGSSVNTFGKLGCDLDMFLDLDETRNLSAHKISGNFLMEFQVKNVPSERIATQKILSVLGECLDHFGPGCVGVQKILNARCPLVRFSHQASGFQCDLTTNNRIALTSSELLYIYGALDSRVRALVFSVRCWARAHSLTSSIPGAWITNFSLTMMVIFFLQRRSPPILPTLDSLKTLADAEDKCVIEGNNCTFVRDLSRIKPSQNTETLELLLKEFFEYFGNFAFDKNSINIRQGREQNKPDSSPLYIQNPFETSLNISKNVSQSQLQKFVDLARESAWILQQEDTDRPSISSNRPWGLVSLLLPSAPNRKSFTKKKSNKFAIETVKNLLESLKGNRTENFTKTSGKRTISTQT [MTPAP] | 51 °C | 49.8 °C | -0.331 | 0.65 | 1.8 | 0.114 |

From the supplement of paper PMC5998384
